Patent US20060140858A1, “Drug pre-targeting by means of bi-specific antibodies and hapten constructs comprising a carrier peptide and the active agent(s)” (Immunomedics, Inc., priority 2002, published 2006)
Where a SMILES comes first, the peptide text is derived from it. The star is where a group is joined. DTPA = O=C(O)CN(CCN(CC(=O)O)CC(=O)O)CCN(CC(=O)O)CC(=O)*

Columns and labels:
[1] = Pretargeting: I-125 F6 × 734-F(ab′)2, 72 h later In-111-IMP-225, biodistribution; conditions: female, mouse, in vivo, 10 uCi, total radioactivity, % ID/g tissue
[2] = tested on: GW-39 tumor xenografts; assay: Pretargeting: 125-I-hMN-14 × 734 bsAb, 48 h later 111-In-indium-IMP-156, biodistribution; type: in vivo, nude mice; conditions: 3 h post peptide
[3] = as above; type: in vivo, nude mice; conditions: female, nude (Taconic NCRNU), mouse, 3 h post peptide
[4] = tested on: GW-39 tumor xenografts; assay: Control group: clearance of 111-In-indium-IMP-156 alone; type: in vivo, nude mice; conditions: 3 h
[5] = as above; type: in vivo, nude mice; conditions: female, NCRNU nude, mouse, total radioactivity

With `COc1cccc2c1C(=O)c1c(O)c3c(c(O)c1C2=O)C[C@@](O)(C(=O)CO)C[C@@H]3O[C@H]1C[C@H](NC(=O)CSC[C@H](NC(C)=O)C(=O)N[C@@H](CCCCNC(=O)CN(CCN(CCN(CC(=O)O)CC(=O)O)CC(=O)O)CC(=O)O)C(=O)N[C@@H](Cc2ccc(O)cc2)C(=O)N[C@@H](CCCCNC(=O)CN(CCN(CCN(CC(=O)O)CC(=O)O)CC(=O)O)CC(=O)O)C(N)=O)[C@H](O)[C@H](C)O1` [IMP 225] the tissue uptake at 1 h ([1]; NCRNU nude, Spleen, 1 h) was 1.6 ± 2.4 %ID/g, the tissue uptake at 1 h ([1]; nude (Taconic NCRNU), Blood, 1 h) was 2 ± 0.4 %ID/g and the tissue uptake at 4 h ([1]; nude (Taconic NCRNU), Blood, 4 h) was 1.3 ± 0.2 %ID/g. For the same compound, the tissue uptake at 24 h ([1]; nude (Taconic NCRNU), Blood, 24 h) was 0.4 ± 0.2 %ID/g, the tissue uptake at 1 h ([1]; nude (Taconic NCRNU), GW-39, 1 h) was 14.6 ± 14 %ID/g and the tissue uptake at 4 h ([1]; nude (Taconic NCRNU), GW-39, 4 h) was 16.5 ± 4.8 %ID/g. For the same compound, the tissue uptake at 24 h ([1]; nude (Taconic NCRNU), GW-39, 24 h) was 10.1 ± 2.3 %ID/g, the tissue uptake at 1 h ([1]; nude (Taconic NCRNU), Kidney, 1 h) was 3.8 ± 0.9 %ID/g and the tissue uptake at 4 h ([1]; nude (Taconic NCRNU), Kidney, 4 h) was 3.8 ± 0.4 %ID/g. It also gave a tissue uptake at 24 h ([1]; nude (Taconic NCRNU), Kidney, 24 h) of 1.7 ± 0.3 %ID/g, a tissue uptake at 1 h ([1]; nude (Taconic NCRNU), Large Int., 1 h) of 0.2 %ID/g and a tissue uptake at 4 h ([1]; nude (Taconic NCRNU), Large Int., 4 h) of 0.3 ± 0.1 %ID/g. The tissue uptake at 24 h ([1]; nude (Taconic NCRNU), Large Int., 24 h) was 0.1 %ID/g, the tissue uptake at 1 h ([1]; nude (Taconic NCRNU), Liver, 1 h) was 0.4 ± 0.2 %ID/g and the tissue uptake at 4 h ([1]; nude (Taconic NCRNU), Liver, 4 h) was 0.4 ± 0.1 %ID/g. For the same compound, the tissue uptake at 24 h ([1]; nude (Taconic NCRNU), Liver, 24 h) was 0.3 ± 0.1 %ID/g, the tissue uptake at 1 h ([1]; nude (Taconic NCRNU), Lungs, 1 h) was 0.8 ± 0.4 %ID/g and the tissue uptake at 4 h ([1]; nude (Taconic NCRNU), Lungs, 4 h) was 0.6 ± 0.1 %ID/g. It also gave a tissue uptake at 24 h ([1]; nude (Taconic NCRNU), Lungs, 24 h) of 0.2 ± 0.1 %ID/g, a tissue uptake at 1 h ([1]; nude (Taconic NCRNU), Muscle, 1 h) of 0.3 ± 0.2 %ID/g and a tissue uptake at 4 h ([1]; nude (Taconic NCRNU), Muscle, 4 h) of 0.2 %ID/g. It also gave a tissue uptake at 24 h ([1]; nude (Taconic NCRNU), Muscle, 24 h) of 0.1 %ID/g, a tissue uptake at 1 h ([1]; nude (Taconic NCRNU), Small Int., 1 h) of 0.4 ± 0.1 %ID/g and a tissue uptake at 4 h ([1]; nude (Taconic NCRNU), Small Int., 4 h) of 0.3 ± 0.2 %ID/g. The tissue uptake at 24 h ([1]; nude (Taconic NCRNU), Small Int., 24 h) was 0.1 %ID/g, the tissue uptake at 4 h ([1]; nude (Taconic NCRNU), Spleen, 4 h) was 0.4 ± 0.1 %ID/g and the tissue uptake at 24 h ([1]; nude (Taconic NCRNU), Spleen, 24 h) was 0.4 ± 0.1 %ID/g. For the same compound, the tissue uptake at 1 h ([1]; nude (Taconic NCRNU), Stomach, 1 h) was 1.1 ± 0.9 %ID/g, the tissue uptake at 4 h ([1]; nude (Taconic NCRNU), Stomach, 4 h) was 0.4 ± 0.2 %ID/g and the tissue uptake at 24 h ([1]; nude (Taconic NCRNU), Stomach, 24 h) was 0.1 %ID/g. For the same compound, the tissue uptake at 1 h ([1]; nude (Taconic NCRNU), Tail, 1 h) was 1.2 ± 0.1 %ID/g, the tissue uptake at 4 h ([1]; nude (Taconic NCRNU), Tail, 4 h) was 0.8 ± 0.2 %ID/g and the tissue uptake at 24 h ([1]; nude (Taconic NCRNU), Tail, 24 h) was 0.5 ± 0.7 %ID/g.

With `CC(=O)N[C@@H](Cc1ccccc1)C(=O)N[C@@H](CCCCNC(=O)CN(CCN(CCN(CC(=O)O)CC(=O)O)CC(=O)O)CC(=O)O)C(=O)N[C@@H](Cc1ccc(O)cc1)C(=O)N[C@@H](CCCCNC(=O)CN(CCN(CCN(CC(=O)O)CC(=O)O)CC(=O)O)CC(=O)O)C(N)=O` [IMP 156, Ac-Phe-Lys(DTPA)-Tyr-Lys(DTPA)-NH2] (Ac-FK(DTPA)YK(DTPA)-NH2) the T/NT ([2]; Blood) was 7.6 ± 1.5, the T/NT ([2]; Kidney) was 2.6 ± 0.5 and the T/NT ([2]; Liver) was 10.6 ± 3.5. For the same compound, the T/NT ([2]; Lungs) was 12 ± 2, the T/NT ([2]; Spleen) was 12 ± 6 and the T/NT ([2]; tumor) was 1. For the same compound, the tissue uptake at 3 h ([3]; Blood) was 0.7 ± 0.2 %ID/g, the tissue uptake at 3 h ([3]; Kidney) was 1.9 ± 0.5 %ID/g and the tissue uptake at 3 h ([3]; Lungs) was 0.4 ± 0.1 %ID/g. The tissue uptake at 3 h ([3]; tumor) was 52 ± 1.9 %ID/g, the T/NT ([4]; Blood) was 3.1 ± 0.7 and the T/NT ([4]; Kidney) was 0.2 ± 0.03. It also gave a T/NT ([4]; Liver) of 0.3 ± 0.1, a T/NT ([4]; Lungs) of 3.5 ± 0.7 and a T/NT ([4]; Spleen) of 0.5 ± 0.1. For the same compound, the T/NT ([4]; Tumor) was 1, the tissue uptake at 3 h ([5]; Blood) was 0.05 ± 0.01 %ID/g and the tissue uptake at 3 h ([5]; Kidney) was 0.93 ± 0.13 %ID/g. For the same compound, the tissue uptake at 3 h ([5]; Liver) was 0.42 ± 0.1 %ID/g, the tissue uptake at 3 h ([5]; Lungs) was 0.04 ± 0.01 %ID/g and the tissue uptake at 3 h ([5]; Spleen) was 0.28 ± 0.09 %ID/g. For the same compound, the tissue uptake at 3 h ([5]; Tumor) was 0.14 ± 0.02 %ID/g.
